From IntAct's records for PubMed 12023303

B1: Transcription factor HY5-like (Arabidopsis thaliana (Mouse-ear cress)), Q8W191-1 (parent)
chain: MSLQRPNGNSSSSSSHKKHKTEESDEELLMVPDMEAAGSTCVLSSSADDGVNNPELDQTQNGVSTAKRRRGRNPVDKEYRSLKRLLRNRVSAQQARERKKVYVSDLESRANELQNNNDQLEEKISTLTNENTMLRKMLINTRPKTDDNH
partner: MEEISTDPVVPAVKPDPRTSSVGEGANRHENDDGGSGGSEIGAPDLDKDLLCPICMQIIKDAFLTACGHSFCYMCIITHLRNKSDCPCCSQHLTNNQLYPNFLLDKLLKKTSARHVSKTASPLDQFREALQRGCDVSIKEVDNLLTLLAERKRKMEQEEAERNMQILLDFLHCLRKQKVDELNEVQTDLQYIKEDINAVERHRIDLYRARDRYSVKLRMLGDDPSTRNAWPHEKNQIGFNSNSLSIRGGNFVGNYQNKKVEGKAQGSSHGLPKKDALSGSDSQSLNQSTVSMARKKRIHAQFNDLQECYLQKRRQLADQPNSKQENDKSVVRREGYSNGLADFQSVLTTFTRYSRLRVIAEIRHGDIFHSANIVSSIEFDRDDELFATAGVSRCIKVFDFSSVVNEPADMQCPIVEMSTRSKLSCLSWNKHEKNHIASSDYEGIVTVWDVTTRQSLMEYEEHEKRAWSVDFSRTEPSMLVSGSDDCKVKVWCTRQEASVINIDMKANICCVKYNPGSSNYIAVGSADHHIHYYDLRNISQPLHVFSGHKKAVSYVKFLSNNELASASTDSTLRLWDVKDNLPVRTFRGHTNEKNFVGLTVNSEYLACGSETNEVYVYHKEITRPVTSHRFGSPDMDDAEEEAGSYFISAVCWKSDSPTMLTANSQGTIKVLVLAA
B2: E3 ubiquitin-protein ligase COP1 (Arabidopsis thaliana (Mouse-ear cress)), P43254 (parent)
chain: B1 partner
partner: B1 chain

Variants of: B1
Conditions: with cop1_arath COP1, P43254

Effect of a mutation on the interaction, decreasing interaction:
V31A;P32A

Variants of: B2
Conditions: with HYH, Q8W191-1

Effect of a mutation on the interaction, decreasing interaction:
K550E
G524E
K422E
W467A
R465E
